Paper doi:10.1101/369454
Each block holds one substance with its values, some of them ahead of it.

Legend:
[1] = biological target: E74C V144C Ta16.9 (Ta_(CT-ACD)), reduced (wheat (Triticum aestivum)) (UniProt Q41560); assay: native MS
[2] = biological target: E74C V144C Ta16.9 (Ta_(CT-ACD)), reduced (wheat (Triticum aestivum)) (UniProt Q41560); assay: dynamic light scattering
[3] = biological target: E81C V151C Ps18.1 (Ps_(CT-ACD)), reduced (Pisum sativum) (UniProt P19243); assay: dynamic light scattering
[4] = biological target: K49C W96C Ta16.9 (Ta_(dimer)), oxidized: disulfide bonded at the dimeric interface (wheat (Triticum aestivum)) (UniProt Q41560); assay: SEC
[5] = biological target: K49C W96C Ta16.9 (Ta_(dimer)), oxidized: disulfide bonded at the dimeric interface (wheat (Triticum aestivum)) (UniProt Q41560); assay: cross-linking
[6] = biological target: K49C W96C Ta16.9 (Ta_(dimer)), oxidized: disulfide bonded at the dimeric interface (wheat (Triticum aestivum)) (UniProt Q41560); assay: dynamic light scattering
[7] = biological target: K49C W96C Ta16.9 (Ta_(dimer)), reduced (wheat (Triticum aestivum)) (UniProt Q41560); assay: dynamic light scattering
[8] = biological target: Ps18.1, cytosolic class-I small heat-shock protein from Pisum sativum, wild type (Pisum sativum) (UniProt P19243); assay: SAXS
[9] = biological target: Ps18.1, cytosolic class-I small heat-shock protein from Pisum sativum, wild type (Pisum sativum) (UniProt P19243); assay: dynamic light scattering

stoichiometry N [1]: 12
stoichiometry N [2]: 12
Substance: E74C V144C Ta16.9 (Ta_(CT-ACD)), reduced (from UniProt Q41560 1-151) (natural protein)

stoichiometry N [8]: 12
stoichiometry N [9]: 12
Substance: Ps18.1, cytosolic class-I small heat-shock protein from Pisum sativum, wild type (from UniProt P19243 1-158) (natural protein)

The remaining lines, values behind:

Substance: E81C V151C Ps18.1 (Ps_(CT-ACD)), reduced (from UniProt P19243 1-158) (natural protein)
stoichiometry N [3]: 12

Substance: K49C W96C Ta16.9 (Ta_(dimer)), oxidized: disulfide bonded at the dimeric interface (from UniProt Q41560 1-151) (natural protein)
stoichiometry N [4]: 12
size of the disulfide-linked covalent unit [5]: 2 chains
stoichiometry N [6]: 12

Substance: K49C W96C Ta16.9 (Ta_(dimer)), reduced (from UniProt Q41560 1-151) (natural protein)
stoichiometry N [7]: 12
